In doi:10.1101/2024.03.08.584019:

Molecular target: GNNV-P R276A (Dragon grouper (Epinephelus lanceolatus) nervous necrosis virus)
Assay: AUC

## GNNV-P R276A (domain or fragment)
  stoichiometry N: 3
